From PMC11354668

Tests used:
[1] = tested on: ChromPure mouse IgG whole molecule (mouse); assay: BLI; settings: BLI (Octet K2), SAX2.0 sensors loaded with 0.5 uM 5'-biotin DNA, IgG 0.0125-0.2 mg/mL, PBST-B, 30 C, pH not …
staphylococcal protein A = staphylococcal protein A (UniProt P38507); assay: BLI; Octet K2; SPA biosensor (sensor type: ProA) with mouse IgG; SPA-IgG run as positive control; the IgG concentrations and times of this kinetic run are not described

Row | Substance | Kd ([1]; 5'-biotin) [nM] | further results
1 | CGCCTAGGTTGGGTAGGGTGGTGGCG [6GN7] |  | Kd ([1]; 5'-biotin (unmodified in SPA competition)): 241 nM
2 | GGGGTTTTGGGGT [1PH1-D] | 881 | 
3 | GGGGTTTTGGGG [1OTC] | 414 | 
4 | GGGGGGGGGG [poly-G10] | 295 | 
5 | TTTTTTTTTTTTTTTT [6SKO] | 1070 | 
6 | GGGGTGGGTGGTGGGT [7XHD] | 521 | 
7 | TTTTTTTTTTTTTTTG [2C62] | 3240 | 
8 | TGGGGTGTGG [2A0I] | 872 | 
9 | TGTACAATGGG [3UGO] | 793 | 
10 | TTTTTTTTTTTTTTT [poly-T15] | 909 | 
11 | GGGGGGGGGGGGGGG [poly-G15] | 273 | 
12 | GGGTCGGTGCCTTA [6CRM] | 1110 | 
13 | TTTTTTTTTTTT [4JS5] | 1730 | 
14 | TTTTTTTTTT [poly-T10] | 1490 | 
15 | TTTTTTTTTTTTTTTTTTTT [poly-T20] | 830 | 
16 | TTTTTTTTTT [4OU6] | 947 | 
17 | TTTTTTTT [7JSI] | 1830 | 
18 | TTTTTTTTTTTTTTTTTTTTTTTTT [4GNX] | 2100 | 
19 | ChromPure mouse IgG whole molecule (antibody) |  | Kd (staphylococcal protein A): 14.9 nM; koff (staphylococcal protein A): 0.000716 s⁻¹; kon (staphylococcal protein A): 48000 M⁻¹ s⁻¹
20 | TTTTTTTTTTTTTTT [2CCZ] | 909 | 
21 | GCGGCGG [5FGP] | 1510 | 
22 | CCCCCCCCCCCCCCC [poly-C15] | 1360 | 
23 | TTTTTTTTTTTTTTTTTTCCCTTTTTTTTTTTTTTTTTTT [5XRZ] | 843 | 
24 | TTTTTTTTTTTTTTTTT [7JSG] | 1120 | 
25 | TTTTTTTTTTTTTTTTTTTTTTTTT [poly-T25] | 1010 | 
26 | GGTTGGTGTGGTTGG [1RDE] | 1090 | 
27 | CAGTGGCTGA [2KN7] | 1200 | 
28 | TTTTTTTTTTTTTTTTTTTTTTTTTTTTTT [poly-T30] | 1430 | 
